Data set [1] concerns subcutaneous B16-F10 tumors. The note with it: mouse, in vivo.
Method: (§1) After in vivo PET imaging (100 min post injection), control and B16-F10 tumor-bearing mice were euthanized with 5% isoflurane (Forane, AbbVie, Budapest, Hungary; OGYI-T-1414/01). For the assessment of the radiotracer uptake, the radioactivity concentration (%ID/g tissue) of the selected organs was measured with a calibrated gamma counter (Perkin-Elmer Packard Cobra, Waltham, MA, USA) (Supplementary Material Table S1).
A short description of data set [2]: in vivo. The conditions noted are these: C57BL/6, mouse, iv, total radioactivity, SUVmean of the liver.
Method: Both normal control and B16-F10 tumorous mice were iv. administered with 6.8 ± 0.9 MBq [^68Ga]Ga-DOTAGA-LacN(NAP), [^68Ga]Ga-DOTAGA-LacN(NAP)-cRGDfK, or [^68Ga]Ga-DOTAGA-cRGDfK in 120 μL saline through the lateral tail vein.
Data set [3] is described as follows: in vivo. The note with it: C57BL/6, mouse, iv, total radioactivity.
Method: as §1
In another data set the test system is human galectin-3 CRD. The note with it: fold greater affinity than lactose; cited from earlier work.
A short description of data set [4]: in vivo. The arrangement: species or system C57BL/6 mice. The conditions noted are these: C57BL/6, mouse, iv, total radioactivity. An excerpt:
As part of the ex vivo biodistribution studies—after PET imaging—the sacrifice of the experimental animals occurred followed by the gamma counter-based measurement of the radioactivity of the organs and tissues (Figure 7).
Significance level between the [^68Ga]Ga-DOTAGA-LacN(NAP) and the two other investigated radiotracers: p ≤ 0.01 (*).

The mark [5] stands for this setting: ex vivo biodistribution: bone (femur).
The mark [6] stands for this setting: ex vivo biodistribution: kidney.
Setting [7] is: ex vivo biodistribution: large intestine.
Setting [8] is: ex vivo biodistribution: muscle.
Setting [9] is: ex vivo biodistribution: pancreas.
[10] abbreviates: ex vivo biodistribution: salivary glands.
[11] abbreviates: ex vivo biodistribution: small intestine.
[12] abbreviates: ex vivo biodistribution: spleen.
[13] abbreviates: uptake in subcutaneous B16-F10 tumors.

As to `N=C(N)NCCC[C@@H]1NC(=O)[C@H](CCCCNC(=S)Nc2ccc(CNC(=O)CCC(C(=O)O)N3CCN(CC(=O)O)CCN(CC(=O)O)CCN(CC(=O)O)CC3)cc2)NC(=O)[C@@H](Cc2ccccc2)NC(=O)[C@H](CC(=O)O)NC(=O)CNC1=O` (stereo partly drawn) [[^68Ga]Ga-DOTAGA-cRGDfK, metal not drawn], the “B16-F10/Liver ratio (T/L)” value in data set [1] was determined as 0.35 ± 0.14. Further, in data set [1], the “B16-F10/Muscle ratio (T/M)” value was 4.54 ± 1.24. The SUV at 80 min in “in vivo [2]” amounted to 0.59 ± 0.08 SUV. Moreover, the tissue uptake at 100 min in the data set “in vivo [3]” (ex vivo biodistribution: blood) was determined as 0.37 ± 0.05 %ID/g; in “in vivo [3]” (setting [5]), 0.26 ± 0.04 %ID/g; in the data set “in vivo [3]” (ex vivo biodistribution: brain), 0.03 ± 0.01 %ID/g; in “in vivo [3]” (ex vivo biodistribution: fat) it was 0.19 ± 0.08 %ID/g; in the data set “in vivo [3]” (ex vivo biodistribution: gall bladder) it was 0.84 ± 0.29 %ID/g; in “in vivo [3]” (ex vivo biodistribution: heart) it was 0.26 ± 0.06 %ID/g. The tissue uptake at 100 min turned out to be 2.43 ± 0.26 %ID/g in the data set “in vivo [3]” (setting [6]); 0.55 ± 0.16 %ID/g in the data set “in vivo [3]” (setting [7]); 1 ± 0.25 %ID/g in the data set “in vivo [3]” (ex vivo biodistribution: liver); 0.66 ± 0.18 %ID/g in “in vivo [3]” (ex vivo biodistribution: lungs); 0.1 ± 0.01 %ID/g in the data set “in vivo [3]” (setting [8]); 0.18 ± 0.06 %ID/g in the data set “in vivo [3]” (setting [9]). Further, the tissue uptake at 100 min in “in vivo [3]” (setting [10]) came out at 0.54 ± 0.18 %ID/g; in the data set “in vivo [3]” (setting [11]), 0.78 ± 0.2 %ID/g; in the data set “in vivo [3]” (setting [12]) it was 0.8 ± 0.09 %ID/g; in the data set “in vivo [3]” (ex vivo biodistribution: stomach), 0.69 ± 0.21 %ID/g; in the data set “in vivo [3]” (setting [13]) it was 0.35 ± 0.12 %ID/g.
As for `CC(=O)N[C@H]1C(O)O[C@H](CO)[C@@H](O[C@@H]2O[C@H](CO)[C@H](O)[C@H](O)[C@H]2O)[C@@H]1O` (stereo partly drawn) [N-acetyl-lactosamine], the “affinity for the CRD of galectin-3 compared to the lactose molecule” value in the data set on human galectin-3 CRD is 5 fold.
Turning to `N=C(N)NCCC[C@@H]1NC(=O)[C@H](CCCCNC(=O)CCOCCOCCOCCOCCNC(=O)CCC(=O)N2Cc3ccccc3-c3c(nnn3CCCO[C@@H]3O[C@H](CO)[C@@H](O[C@@H]4O[C@H](CO)[C@H](O)[C@H](OCc5ccc6ccccc6c5)[C@H]4O)[C@H](O)[C@H]3NC(=S)Nc3ccc(CNC(=O)CCC(C(=O)O)N4CCN(CC(=O)O)CCN(CC(=O)O)CCN(CC(=O)O)CC4)cc3)-c3ccccc32)NC(=O)[C@@H](Cc2ccccc2)NC(=O)[C@H](CC(=O)O)NC(=O)CNC1=O` (stereo partly drawn) [[^68Ga]Ga-DOTAGA-LacN(NAP)-cRGDfK, metal not drawn], the “B16-F10/Liver ratio (T/L)” value in data set [1] is given as 0.45 ± 0.11. In data set [1], the “B16-F10/Muscle ratio (T/M)” value turned out to be 3.43 ± 1.09. The SUV at 80 min in the data set “in vivo [2]” stood at 1.25 ± 0.18 SUV. Moreover, the tissue uptake at 100 min in “in vivo [4]” (accumulation in the gall bladder) is 3.07 ± 2.1 %ID/g; in “in vivo [4]” (accumulation in the intestines), around 1.7 %ID/g; in the data set “in vivo [4]” (accumulation in the stomach), 1.7 ± 0.71 %ID/g; in the data set “in vivo [3]” (ex vivo biodistribution: blood) it was 0.58 ± 0.14 %ID/g; in “in vivo [3]” (setting [5]), 0.54 ± 0.21 %ID/g; in “in vivo [3]” (ex vivo biodistribution: brain), 0.06 ± 0.01 %ID/g. Besides, the tissue uptake at 100 min in the data set “in vivo [3]” (ex vivo biodistribution: fat) is 0.17 ± 0.13 %ID/g; in the data set “in vivo [3]” (ex vivo biodistribution: heart), 0.61 ± 0.17 %ID/g; in “in vivo [3]” (setting [6]), 6.14 ± 1.14 %ID/g; in “in vivo [3]” (setting [7]) it was 1.74 ± 0.7 %ID/g; in “in vivo [3]” (ex vivo biodistribution: liver) it was 2.19 ± 0.73 %ID/g; in the data set “in vivo [3]” (ex vivo biodistribution: lungs), 1.54 ± 0.62 %ID/g. Moreover, the tissue uptake at 100 min in the data set “in vivo [3]” (setting [8]) turned out to be 0.27 ± 0.07 %ID/g; in the data set “in vivo [3]” (setting [9]), 0.43 ± 0.12 %ID/g; in the data set “in vivo [3]” (setting [10]), 1.34 ± 0.5 %ID/g; in “in vivo [3]” (setting [11]), 1.77 ± 0.96 %ID/g; in the data set “in vivo [3]” (setting [12]), 1.6 ± 1.17 %ID/g; in “in vivo [3]” (setting [13]), 0.8 ± 0.23 %ID/g.

Usually tissue uptake stands for the share of the injected amount in each gram of the tissue.
